The record followed here is patent US7645583B2, “Identification of compounds for inhibiting complexation of C-reactive protein with fibronectin” (Kimberly-Clark Worldwide, Inc., priority 2005, dated 2010).

The target in this experiment is CRP/Fn binding (CRP captured on immobilized CRP antibody, Fn injected) (Homo sapiens, UniProt P02741+P02751). Briefly: SPR (Biacore X) in vitro model of the inhibitory effect of test compounds on CRP/Fn binding. Further details: 10 μL of CRP antigen 6 (50 μg/mL) was injected in flow channel 2. To be noted: for inhibitory effect on CRP/Fn binding (in words): at the conditions of Table 3; for SPR Response (RU): control without inhibitor 118 RU. Here is the method: An in vitro model was designed to determine inhibitory effect of several different test compounds on CRP/Fn binding. Surface plasmon resonance (SPR) measurements were performed using a Biacore® X system and amine coupling kit for immobilization. […] All experiments were performed at 25° C., unless otherwise specified. The SPR technology used is based on optical phenomena in which the measured response depends on a change in refractive index in the close vicinity of the sensor chip surface. The response in such systems is proportional to the mass of analyte bound to the surface. The SPR method was used to monitor continuous analysis over the course of the interaction. […] (catalog number A58110228P), which specifically binds to calcium/phosphocholine site of CRP, was immobilized on a surface of a sensor chip 23 (CM5, carboxyl functionalized) via amine coupling chemistry as is generally known in the art. Following immobilization of the antibody to the surface of the chip 23, 10 μL of CRP antigen 6 (50 μg/mL) was injected in flow channel 2. Following this injection, 60 μL of an Fn solution 8 was injected into both flow channel 1 and flow channel 2 for two minutes duration (association phase), followed by 2 minutes delay time (dissociation phase). […] The process was repeated with an Fn solution including no inhibitor material as a control as well as several Fn solutions including various inhibitor compounds as herein described. Fn concentration was 1 mg/mL in all solutions.
(In general: Surface plasmon resonance follows binding to a sensor surface in real time, without labels.)

The mark [1] stands for this setting: inhibitor 50 μM, Fn 1 mg/mL, 25° C.
Where [2] appears, read: inhibitor 50 μM, Fn 1 mg/mL, 25° C., relative to control without inhibitor.

Sequence of CRP/Fn binding (CRP captured on immobilized CRP antibody, Fn injected) (P02741 19-224): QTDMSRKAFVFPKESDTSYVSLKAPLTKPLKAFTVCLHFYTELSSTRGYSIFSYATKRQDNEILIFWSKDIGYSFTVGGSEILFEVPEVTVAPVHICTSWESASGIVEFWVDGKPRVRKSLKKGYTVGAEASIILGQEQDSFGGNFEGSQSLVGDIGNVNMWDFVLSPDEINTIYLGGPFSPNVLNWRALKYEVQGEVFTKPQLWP
Sequence of CRP/Fn binding (CRP captured on immobilized CRP antibody, Fn injected) (P02751 32-2477): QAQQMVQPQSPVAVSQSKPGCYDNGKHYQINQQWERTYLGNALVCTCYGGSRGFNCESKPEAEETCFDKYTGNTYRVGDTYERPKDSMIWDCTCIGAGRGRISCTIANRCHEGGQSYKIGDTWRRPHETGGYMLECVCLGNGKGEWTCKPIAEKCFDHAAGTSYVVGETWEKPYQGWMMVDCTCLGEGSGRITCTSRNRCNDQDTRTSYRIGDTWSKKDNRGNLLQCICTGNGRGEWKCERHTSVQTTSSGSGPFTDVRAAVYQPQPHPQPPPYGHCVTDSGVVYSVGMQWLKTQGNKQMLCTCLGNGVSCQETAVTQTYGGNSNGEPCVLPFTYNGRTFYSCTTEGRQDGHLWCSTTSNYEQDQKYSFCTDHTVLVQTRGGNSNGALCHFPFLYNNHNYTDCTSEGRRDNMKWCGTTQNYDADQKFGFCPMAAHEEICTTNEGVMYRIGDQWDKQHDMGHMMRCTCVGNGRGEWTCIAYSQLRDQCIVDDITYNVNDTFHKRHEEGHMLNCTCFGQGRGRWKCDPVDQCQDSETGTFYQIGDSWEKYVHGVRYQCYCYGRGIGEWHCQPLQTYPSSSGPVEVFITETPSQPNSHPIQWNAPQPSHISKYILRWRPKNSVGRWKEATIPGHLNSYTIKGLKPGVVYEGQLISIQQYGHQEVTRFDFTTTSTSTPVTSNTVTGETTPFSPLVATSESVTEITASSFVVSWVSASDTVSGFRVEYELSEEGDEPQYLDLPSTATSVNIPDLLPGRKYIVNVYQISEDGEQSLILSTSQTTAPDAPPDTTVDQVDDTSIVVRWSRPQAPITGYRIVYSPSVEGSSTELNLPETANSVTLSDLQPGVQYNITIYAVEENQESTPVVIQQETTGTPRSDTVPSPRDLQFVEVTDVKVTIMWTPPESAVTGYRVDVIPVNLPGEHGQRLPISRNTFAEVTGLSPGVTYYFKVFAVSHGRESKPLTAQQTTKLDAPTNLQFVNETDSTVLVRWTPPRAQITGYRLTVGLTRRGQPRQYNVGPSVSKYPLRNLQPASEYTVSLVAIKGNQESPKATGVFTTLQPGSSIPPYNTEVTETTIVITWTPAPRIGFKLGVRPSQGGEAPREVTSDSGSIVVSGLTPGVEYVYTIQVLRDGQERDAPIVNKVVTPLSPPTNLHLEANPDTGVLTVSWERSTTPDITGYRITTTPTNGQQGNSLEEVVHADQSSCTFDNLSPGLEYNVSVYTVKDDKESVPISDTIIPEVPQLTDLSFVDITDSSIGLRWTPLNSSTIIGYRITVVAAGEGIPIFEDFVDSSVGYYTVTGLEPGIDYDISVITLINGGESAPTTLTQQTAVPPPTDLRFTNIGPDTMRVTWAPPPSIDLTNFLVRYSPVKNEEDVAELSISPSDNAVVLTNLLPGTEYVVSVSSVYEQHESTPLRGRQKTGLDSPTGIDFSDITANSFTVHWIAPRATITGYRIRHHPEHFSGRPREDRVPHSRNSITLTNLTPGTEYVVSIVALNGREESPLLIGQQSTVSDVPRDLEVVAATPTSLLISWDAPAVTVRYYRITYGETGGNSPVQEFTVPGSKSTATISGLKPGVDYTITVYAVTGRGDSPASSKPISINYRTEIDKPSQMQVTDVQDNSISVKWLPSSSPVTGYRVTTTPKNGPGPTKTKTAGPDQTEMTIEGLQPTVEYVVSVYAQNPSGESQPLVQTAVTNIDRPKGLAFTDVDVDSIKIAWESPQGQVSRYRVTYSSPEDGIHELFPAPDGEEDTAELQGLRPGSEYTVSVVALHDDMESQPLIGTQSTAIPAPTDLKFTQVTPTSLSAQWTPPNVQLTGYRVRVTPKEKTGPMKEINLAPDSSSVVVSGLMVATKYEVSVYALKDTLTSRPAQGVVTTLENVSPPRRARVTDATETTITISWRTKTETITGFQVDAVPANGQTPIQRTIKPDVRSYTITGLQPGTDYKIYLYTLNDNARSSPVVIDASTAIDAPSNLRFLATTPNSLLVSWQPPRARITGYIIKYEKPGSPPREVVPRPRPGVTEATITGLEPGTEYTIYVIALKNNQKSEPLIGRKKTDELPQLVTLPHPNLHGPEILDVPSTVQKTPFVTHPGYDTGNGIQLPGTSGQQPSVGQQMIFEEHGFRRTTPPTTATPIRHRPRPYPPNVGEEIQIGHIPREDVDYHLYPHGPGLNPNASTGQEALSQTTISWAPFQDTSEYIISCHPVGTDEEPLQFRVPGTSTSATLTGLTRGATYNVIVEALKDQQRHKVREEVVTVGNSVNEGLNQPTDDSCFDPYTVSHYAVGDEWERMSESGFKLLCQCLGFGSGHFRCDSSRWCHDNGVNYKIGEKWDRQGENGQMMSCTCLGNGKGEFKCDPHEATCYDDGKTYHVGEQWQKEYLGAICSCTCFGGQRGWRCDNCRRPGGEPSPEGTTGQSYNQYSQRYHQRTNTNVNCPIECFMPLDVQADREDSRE

In the case of “10-mer: 10-mer polypeptide of SEQ ID NO.:12, exemplary inhibitor of CRP/Fn complexation (NYNFFPRKPK; listed as Homo sapiens)”, the “inhibitory effect on CRP/Fn binding (in words)” value (“inhibitory effect” below) was “somewhat less inhibitory effect”. The “SPR Response (RU)” value under setting [1] turned out to be 76 RU. Also, the % Inhibition (usually the drop in the measured response relative to a control, in per cent) under setting [2] was 35.6%.

In the case of `CC/C=C\C[C@H]1C(=O)CC[C@@H]1CC(=O)O` [Jasmonic acid, jasmonic acid], the “inhibitory effect” value is recorded as “somewhat less inhibitory effect”. The “SPR Response (RU)” value (inhibitor 40 μM, Fn 1 mg/mL, 25° C.) is on record as 94 RU. The “% Inhibition” value (inhibitor 40 μM, Fn 1 mg/mL, 25° C., relative to control without inhibitor) was found to be 20.4%.

For “9-mer: 9 mer segment of SEQ ID NO.:11, specifically the first nine amino acids of SEQ ID NO.:11 (PRCGNPDVA; listed as Homo sapiens)”, the “inhibitory effect” value is “no significant effect”. Also, the “SPR Response (RU)” value under setting [1] stood at 119 RU. Also, the “% Inhibition” value under setting [2] is recorded as 0.0%.

As to `C=C1C[C@]23C[C@@]1(O)CC[C@H]2[C@@]12C=C[C@H](O)[C@@](C)(C(=O)O1)[C@H]2[C@@H]3C(=O)O` [Gibberellic acid, gibberellic acid], the “inhibitory effect” value is on record as “somewhat less inhibitory effect”. Further, the “SPR Response (RU)” value (inhibitor 200 μM, Fn 1 mg/mL, 25° C.) came to 90 RU. Also, at 200 µM the inhibition (inhibitor 200 μM, Fn 1 mg/mL, 25° C., relative to control without inhibitor) was 23.7%.
